# From patent US20160136234A1
# Legend:
# Experiment in all cases: cell-based or functional assay
# ALK4 (h) (human) = biological target: T1, ALK4 (h) (human) (UniProt P36896)
# T1 sequence (looked up): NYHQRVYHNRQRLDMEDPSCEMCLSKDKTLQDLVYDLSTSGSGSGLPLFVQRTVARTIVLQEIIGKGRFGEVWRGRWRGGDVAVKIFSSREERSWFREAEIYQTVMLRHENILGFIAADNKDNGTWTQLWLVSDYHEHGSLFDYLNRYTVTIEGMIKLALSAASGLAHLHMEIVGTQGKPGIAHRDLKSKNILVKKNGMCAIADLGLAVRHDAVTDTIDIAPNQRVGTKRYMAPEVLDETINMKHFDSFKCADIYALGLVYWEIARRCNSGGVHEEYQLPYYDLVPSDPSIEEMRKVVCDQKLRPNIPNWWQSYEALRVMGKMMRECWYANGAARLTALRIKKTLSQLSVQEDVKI
# CDK3/cyclinE (h) (human) = CDK3/cyclinE (h) (human) (UniProt Q00526)
# CDK5/p35 (h) (human) = CDK5/p35 (h) (human) (UniProt Q00535)
# [1] = biological target: CDK6/cyclinD3 (h) (human) (UniProt Q00534)
# CDK6/cyclinD3 (h) (human), sequence (Q00534 whole entry, chain 1 of 2): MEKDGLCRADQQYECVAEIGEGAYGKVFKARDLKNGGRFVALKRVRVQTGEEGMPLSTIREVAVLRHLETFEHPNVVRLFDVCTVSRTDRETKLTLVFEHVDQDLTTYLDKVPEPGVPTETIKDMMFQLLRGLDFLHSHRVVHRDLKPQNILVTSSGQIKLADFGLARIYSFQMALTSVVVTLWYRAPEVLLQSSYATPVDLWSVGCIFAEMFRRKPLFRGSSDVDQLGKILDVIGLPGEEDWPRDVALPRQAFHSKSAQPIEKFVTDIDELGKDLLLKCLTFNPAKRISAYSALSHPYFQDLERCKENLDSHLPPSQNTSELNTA
# CDK6/cyclinD3 (h) (human), sequence (P30281 whole entry, chain 2 of 2, further chain): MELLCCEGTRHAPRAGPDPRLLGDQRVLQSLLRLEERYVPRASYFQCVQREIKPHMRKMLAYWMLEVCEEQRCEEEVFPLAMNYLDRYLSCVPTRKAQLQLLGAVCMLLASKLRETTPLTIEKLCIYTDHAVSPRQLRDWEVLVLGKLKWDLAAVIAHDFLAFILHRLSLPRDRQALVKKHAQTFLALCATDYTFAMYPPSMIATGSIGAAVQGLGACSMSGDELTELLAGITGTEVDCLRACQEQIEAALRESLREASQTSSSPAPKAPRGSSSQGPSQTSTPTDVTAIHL
# CaMKIδ (h) (human) = CaMKIδ (h) (human) (UniProt Q8IU85)
# FGFR1 (h) (human) = FGFR1 (h) (human) (UniProt P11362)
# FGFR1 (h) (human), sequence (P11362 456-765 limits assumed): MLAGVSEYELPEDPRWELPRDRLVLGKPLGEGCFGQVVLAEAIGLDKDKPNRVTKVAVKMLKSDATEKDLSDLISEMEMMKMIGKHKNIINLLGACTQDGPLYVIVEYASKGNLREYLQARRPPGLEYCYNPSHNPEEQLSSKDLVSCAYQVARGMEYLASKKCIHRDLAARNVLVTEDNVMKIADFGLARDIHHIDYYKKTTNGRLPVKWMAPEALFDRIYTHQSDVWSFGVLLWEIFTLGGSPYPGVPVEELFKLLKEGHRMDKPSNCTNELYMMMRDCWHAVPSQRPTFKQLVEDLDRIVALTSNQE
# Fms (h) (human) = biological target: T2, Fms (h) (human) (UniProt P07333)
# T2 sequence (looked up): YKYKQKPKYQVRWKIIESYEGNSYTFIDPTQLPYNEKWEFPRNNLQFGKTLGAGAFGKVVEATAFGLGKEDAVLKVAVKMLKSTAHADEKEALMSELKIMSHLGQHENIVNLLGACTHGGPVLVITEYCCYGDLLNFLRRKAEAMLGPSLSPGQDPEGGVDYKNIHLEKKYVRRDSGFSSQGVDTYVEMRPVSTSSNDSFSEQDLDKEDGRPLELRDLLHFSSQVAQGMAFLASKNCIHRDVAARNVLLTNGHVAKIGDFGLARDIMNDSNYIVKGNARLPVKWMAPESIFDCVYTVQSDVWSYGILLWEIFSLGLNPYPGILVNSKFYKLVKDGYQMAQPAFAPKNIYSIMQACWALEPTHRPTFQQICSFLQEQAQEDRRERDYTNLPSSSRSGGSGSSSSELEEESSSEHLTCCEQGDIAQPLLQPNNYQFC
# [2] = biological target: IR (h), activated (human) (UniProt P06213)
# IR (h), activated (human), sequence (P06213 1005-1310 limits assumed): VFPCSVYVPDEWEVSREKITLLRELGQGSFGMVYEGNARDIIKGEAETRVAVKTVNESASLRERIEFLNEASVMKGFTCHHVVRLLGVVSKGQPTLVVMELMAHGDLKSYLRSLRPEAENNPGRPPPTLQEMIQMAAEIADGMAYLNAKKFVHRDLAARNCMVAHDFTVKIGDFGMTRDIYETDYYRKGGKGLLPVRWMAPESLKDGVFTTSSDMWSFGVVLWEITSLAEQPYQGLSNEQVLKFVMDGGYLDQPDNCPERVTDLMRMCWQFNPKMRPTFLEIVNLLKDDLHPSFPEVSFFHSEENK
# MELK (h) (human) = MELK (h) (human) (UniProt Q14680)
# [3] = biological target: Mitogen-Activated Protein Kinase-Activated Protein Kinase 2 (human) (UniProt P49137)
# PKBγ (h) (human) = PKBγ (h) (human) (UniProt Q9Y243)
# PKBγ (h) (human), sequence (Q9Y243 whole entry): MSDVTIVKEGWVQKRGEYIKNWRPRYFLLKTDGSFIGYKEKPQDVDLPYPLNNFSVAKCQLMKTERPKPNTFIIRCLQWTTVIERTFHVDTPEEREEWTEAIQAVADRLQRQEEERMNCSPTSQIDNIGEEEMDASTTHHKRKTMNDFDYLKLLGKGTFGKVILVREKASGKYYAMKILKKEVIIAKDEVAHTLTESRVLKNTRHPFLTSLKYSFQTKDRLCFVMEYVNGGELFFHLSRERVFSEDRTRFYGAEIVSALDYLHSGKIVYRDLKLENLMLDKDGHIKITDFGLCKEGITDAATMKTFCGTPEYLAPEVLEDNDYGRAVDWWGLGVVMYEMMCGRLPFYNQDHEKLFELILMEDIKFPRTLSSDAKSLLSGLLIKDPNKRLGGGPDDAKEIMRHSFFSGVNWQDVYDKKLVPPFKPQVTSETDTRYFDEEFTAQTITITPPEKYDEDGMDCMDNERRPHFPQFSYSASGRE
# SAPK3 (h) (human) = biological target: T3, SAPK3 (h) (human) (UniProt P53778)
# T3 sequence (looked up): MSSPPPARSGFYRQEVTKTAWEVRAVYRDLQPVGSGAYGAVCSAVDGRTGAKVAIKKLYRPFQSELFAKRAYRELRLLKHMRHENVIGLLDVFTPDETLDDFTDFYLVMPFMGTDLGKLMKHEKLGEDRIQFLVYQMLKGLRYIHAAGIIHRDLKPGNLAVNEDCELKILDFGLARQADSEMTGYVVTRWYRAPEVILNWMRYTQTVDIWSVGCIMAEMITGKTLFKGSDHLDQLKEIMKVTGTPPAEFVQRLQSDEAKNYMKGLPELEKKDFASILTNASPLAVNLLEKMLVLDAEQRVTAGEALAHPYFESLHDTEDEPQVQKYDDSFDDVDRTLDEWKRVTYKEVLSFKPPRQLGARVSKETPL
# [4] = biological target: T4, Tec (h) activated (human) (UniProt P42680)
# T4 sequence (looked up): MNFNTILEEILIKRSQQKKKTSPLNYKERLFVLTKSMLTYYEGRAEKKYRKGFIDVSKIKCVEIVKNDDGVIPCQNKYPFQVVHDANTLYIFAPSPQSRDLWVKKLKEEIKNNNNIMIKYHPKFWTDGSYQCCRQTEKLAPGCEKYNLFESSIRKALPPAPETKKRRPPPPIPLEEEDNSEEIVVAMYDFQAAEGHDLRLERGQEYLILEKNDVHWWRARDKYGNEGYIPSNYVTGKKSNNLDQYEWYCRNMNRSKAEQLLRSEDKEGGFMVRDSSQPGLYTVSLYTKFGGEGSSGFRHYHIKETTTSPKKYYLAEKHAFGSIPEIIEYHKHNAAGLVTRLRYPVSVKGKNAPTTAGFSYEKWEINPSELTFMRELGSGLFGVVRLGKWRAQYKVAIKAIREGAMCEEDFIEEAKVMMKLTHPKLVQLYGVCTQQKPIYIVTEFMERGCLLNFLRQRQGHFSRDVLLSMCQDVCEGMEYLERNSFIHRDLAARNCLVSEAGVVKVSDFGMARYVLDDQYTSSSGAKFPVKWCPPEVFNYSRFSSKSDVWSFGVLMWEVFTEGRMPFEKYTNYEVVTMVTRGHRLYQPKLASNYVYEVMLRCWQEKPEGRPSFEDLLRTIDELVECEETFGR
# Txk (h) (human) = biological target: T5, Txk (h) (human) (UniProt P42681)
# T5 sequence (looked up): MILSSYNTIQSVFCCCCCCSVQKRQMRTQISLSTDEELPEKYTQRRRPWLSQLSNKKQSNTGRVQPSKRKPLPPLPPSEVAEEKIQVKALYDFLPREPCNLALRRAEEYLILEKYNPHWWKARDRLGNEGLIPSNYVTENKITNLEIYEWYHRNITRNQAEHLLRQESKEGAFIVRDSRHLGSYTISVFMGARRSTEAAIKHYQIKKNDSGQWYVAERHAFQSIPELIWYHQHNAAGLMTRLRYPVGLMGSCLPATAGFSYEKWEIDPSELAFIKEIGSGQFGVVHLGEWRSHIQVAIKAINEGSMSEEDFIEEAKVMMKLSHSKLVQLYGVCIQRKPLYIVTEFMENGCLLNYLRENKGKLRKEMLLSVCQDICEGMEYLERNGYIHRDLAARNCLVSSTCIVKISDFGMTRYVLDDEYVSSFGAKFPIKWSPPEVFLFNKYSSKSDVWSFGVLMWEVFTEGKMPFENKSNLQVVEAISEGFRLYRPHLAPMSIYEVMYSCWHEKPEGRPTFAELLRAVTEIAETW
substance,measurement,setting,value
MMI-0300 (peptide),% activity at 100 µM,ALK4 (h) (human),140%
same,% activity at 100 µM,CDK3/cyclinE (h) (human),94%
same,% activity at 100 µM,CDK5/p35 (h) (human),79%
same,% activity at 100 µM,[1],86%
same,% activity at 100 µM,CaMKIδ (h) (human),10%
same,% activity at 100 µM,FGFR1 (h) (human),55%
same,% activity at 100 µM,Fms (h) (human),45%
same,% activity at 100 µM,[2],79%
same,% activity at 100 µM,MELK (h) (human),16%
same,% activity at 100 µM,[3],5%
same,% activity at 100 µM,PKBγ (h) (human),20%
same,% activity at 100 µM,SAPK3 (h) (human),84%
same,% activity at 100 µM,[4],56%
same,% activity at 100 µM,Txk (h) (human),48%
